From the Human Domainome abundance scans (Beltran et al. 2025)
± gives the uncertainty stated by the source.

B1: Zinc finger homeobox protein 4, residues 2183 to 2238; numbered along this chain, Q86UP3 (parent)
chain: SSRTRFTDYQLRVLQDFFDTNAYPKDDEIEQLSTVLNLPTRVIVVWFQNARQKARK
B2: SWI/SNF complex subunit SMARCC2, residues 599 to 641; numbered along this chain, Q8TAQ2 (parent)
chain: REWTEQETLLLLEALEMYKDDWNKVSEHVGSRTQDECILHFLR

Variants of: B1
Test: abundance fitness (aPCA) (normalised: wild type 0, dead -1); higher = more abundant; growth selection in yeast, the domain comes from the species named
Conditions: Homo sapiens

Abundance fitness: each site, then its substitutions
Q52: L -0.121 ± 0.11, E 0.068 ± 0.32, N -0.166 ± 0.2, H -0.015 ± 0.23, P -0.049 ± 0.15, S -0.275 ± 0.16, R -0.401 ± 0.19, V 0.026 ± 0.19, A -0.418 ± 0.24, Y -0.256 ± 0.28, T 0.011 ± 0.14, M -0.308 ± 0.39
F47: P -1.06 ± 0.32, V -0.264 ± 0.11, N -0.778 ± 0.41, Y -0.207 ± 0.28, H -0.6 ± 0.47, L -0.016 ± 0.092, W -0.452 ± 0.14, D -0.4 ± 0.24, K -0.694 ± 0.2, S -0.507 ± 0.12, C -0.471 ± 0.18, R -0.801 ± 0.12, E -0.967 ± 0.16, M -0.334 ± 0.15, G -0.342 ± 0.09, I 0.044 ± 0.4, A -0.406 ± 0.12, T -0.893 ± 0.29, Q -0.829 ± 0.22
L38: I -0.061 ± 0.087, R -0.416 ± 0.086, M -0.067 ± 0.1, D -0.709 ± 0.12, S -0.275 ± 0.074, Q -0.131 ± 0.11, C 0.018 ± 0.093, V -0.051 ± 0.085, W -0.735 ± 0.14, T -0.007 ± 0.075, P -0.913 ± 0.12, A -0.019 ± 0.082, K -0.357 ± 0.13, G -1.04 ± 0.13, H -0.305 ± 0.086, N -0.914 ± 0.099, E -0.366 ± 0.14, F -0.277 ± 0.087, Y -0.431 ± 0.083
R51: A -0.24 ± 0.13, V -0.043 ± 0.13, P -0.898 ± 0.24, C -0.128 ± 0.24, W -0.194 ± 0.13, I -0.235 ± 0.2, Y -0.175 ± 0.31, D -0.304 ± 0.26, K 0.035 ± 0.26, H -0.462 ± 0.25, Q -0.251 ± 0.24, F -0.221 ± 0.23, N -0.488 ± 0.34, G -0.317 ± 0.1, T -0.608 ± 0.24, E -0.144 ± 0.27, M -0.219 ± 0.23
N37: Q -0.137 ± 0.13, V -0.056 ± 0.084, S -0.109 ± 0.096, T 0.111 ± 0.11, P -0.847 ± 0.18, Y -0.595 ± 0.21, W -0.569 ± 0.11, R -0.12 ± 0.081
V42: Y -0.18 ± 0.21, Q -0.143 ± 0.14, P -0.194 ± 0.16, C -0.263 ± 0.2, E 0.23 ± 0.14, L -0.155 ± 0.1, A -0.093 ± 0.12, W -0.039 ± 0.12, G -0.065 ± 0.086, T 0.043 ± 0.15, H 0.03 ± 0.16, K -0.236 ± 0.17, R -0.2 ± 0.091, F -0.415 ± 0.19, S -0.077 ± 0.12, N -0.345 ± 0.27, I 0.043 ± 0.14, D 0.141 ± 0.15
Q48: V -0.061 ± 0.17, T -0.082 ± 0.23, N -0.132 ± 0.18, D -0.021 ± 0.15, W -0.262 ± 0.18, H -0.418 ± 0.26, R -0.106 ± 0.1, I -0.281 ± 0.29, L -0.441 ± 0.2, E -0.134 ± 0.19, M -0.278 ± 0.19, G -0.177 ± 0.1, P -1.11 ± 0.3, K -0.434 ± 0.23, A 0.017 ± 0.19, S -0.161 ± 0.12, C -0.051 ± 0.23
N49: L -0.17 ± 0.1, P -0.862 ± 0.22, W -0.352 ± 0.12, F 0.005 ± 0.27, G -0.011 ± 0.084, D 0.108 ± 0.17, E 0.032 ± 0.15, Q -0.355 ± 0.19, H -0.077 ± 0.14, V -0.261 ± 0.11, I -0.127 ± 0.16, M -0.168 ± 0.14, Y -0.246 ± 0.19, C -0.252 ± 0.14, A -0.418 ± 0.12, K -0.153 ± 0.18, T 0.073 ± 0.14
A54: E -0.013 ± 0.23, Y -0.277 ± 0.15, P -0.073 ± 0.088, V -0.053 ± 0.1, F -0.06 ± 0.12, M -0.013 ± 0.2, G -0.06 ± 0.12, I -0.096 ± 0.13, R -0.179 ± 0.1, D -0.068 ± 0.12, C 0.062 ± 0.17, L -0.079 ± 0.093, Q 0.01 ± 0.17, K -0.232 ± 0.23, W -0.211 ± 0.18, N 0.081 ± 0.12, T -0.1 ± 0.097, H -0.039 ± 0.094
K56: H -0.012 ± 0.23, L -0.33 ± 0.37, Q -0.178 ± 0.27, C -0.27 ± 0.27, Y 0.061 ± 0.21, P 0.04 ± 0.38, D -0.06 ± 0.23, E -0.547 ± 0.29, T 0.029 ± 0.24, R -0.188 ± 0.14, I -0.238 ± 0.38, N -0.248 ± 0.18, S -0.366 ± 0.15, M -0.079 ± 0.24, G -0.038 ± 0.19
R41: Q 0 ± 0.14, L -0.059 ± 0.085, V -0.008 ± 0.09, S 0.083 ± 0.1, D 0.204 ± 0.13, K 0.033 ± 0.11, P -0.143 ± 0.13, T 0.06 ± 0.11, Y 0.017 ± 0.17, H -0.196 ± 0.16, N 0.103 ± 0.21, A 0.069 ± 0.11, W -0.335 ± 0.13, E -0.181 ± 0.14, C -0.002 ± 0.14, M -0.081 ± 0.13
P39: Q -0.095 ± 0.15, R -0.097 ± 0.077, L -0.962 ± 0.15, Y -0.701 ± 0.19, K -0.245 ± 0.14, G 0.014 ± 0.077, V -0.766 ± 0.1, A -0.153 ± 0.09, H 0.154 ± 0.15, W -1.22 ± 0.17, M -0.69 ± 0.17, C -0.063 ± 0.13, N -0.127 ± 0.23, S -0.062 ± 0.099, E -0.037 ± 0.1, F -1.1 ± 0.25, T -0.041 ± 0.11, D 0.093 ± 0.12
V44: L 0.042 ± 0.068, S 0.008 ± 0.07, Q -0.052 ± 0.089, P -0.356 ± 0.075, E 0.125 ± 0.13, C 0.028 ± 0.1, I 0.05 ± 0.079, N 0.002 ± 0.082, A -0.067 ± 0.077, D -0.064 ± 0.11, K -0.22 ± 0.11, M -0.136 ± 0.1, H -0.027 ± 0.078, W -0.253 ± 0.12, R -0.099 ± 0.081, G -0.059 ± 0.096, T -0.094 ± 0.07, Y -0.223 ± 0.093
T40: I 0.591 ± 0.32, P -0.254 ± 0.28, N -0.546 ± 0.45, S -0.213 ± 0.44
R55: Q -0.1 ± 0.34, H 0.187 ± 0.18, C -0.104 ± 0.22, A -0.111 ± 0.13, F -0.369 ± 0.27, W -0.286 ± 0.14, E -0.129 ± 0.19, Y 0.176 ± 0.39, G -0.048 ± 0.092, D -0.041 ± 0.21, V -0.161 ± 0.12, S -0.069 ± 0.14, T 0.004 ± 0.19, I 0.307 ± 0.23, M 0.154 ± 0.3, P -0.113 ± 0.15, L 0.223 ± 0.13
A50: D -0.57 ± 0.41, H -0.394 ± 0.34, I -0.396 ± 0.41, V -0.044 ± 0.12, T -0.087 ± 0.19, L -0.256 ± 0.12, E -0.116 ± 0.15, F -0.054 ± 0.28, P -0.87 ± 0.29, N -0.033 ± 0.22, C 0.045 ± 0.14, K -0.347 ± 0.2, R -0.155 ± 0.086, Q -0.113 ± 0.18
K53: I -0.124 ± 0.16, H 0.126 ± 0.17, A 0.145 ± 0.099, G 0.023 ± 0.073, L 0.144 ± 0.085, R -0.137 ± 0.079, W -0.178 ± 0.1, S -0.06 ± 0.095, E 0.262 ± 0.11, F 0.036 ± 0.15, D 0.109 ± 0.16, Q -0.155 ± 0.11, P -0.054 ± 0.12, Y -0.223 ± 0.19, C 0.11 ± 0.13, M 0.119 ± 0.15, T 0.028 ± 0.12
I43: L -0.059 ± 0.1, F -0.412 ± 0.23, E -0.69 ± 0.16, W -1.07 ± 0.24, G -1.01 ± 0.15, T 0.032 ± 0.13, D -0.881 ± 0.29, H -1.18 ± 0.29, V -0.12 ± 0.11, P -0.869 ± 0.29, A -0.259 ± 0.12, N -1.01 ± 0.31, R -1 ± 0.13, M -0.394 ± 0.16, Q -0.964 ± 0.24, S -0.766 ± 0.16, C -0.193 ± 0.37, K -1.22 ± 0.26
V45: L 0.007 ± 0.1, I -0.175 ± 0.12, R -0.335 ± 0.11, Q -0.242 ± 0.19, G 0.047 ± 0.1, A -0.09 ± 0.11, D 0.528 ± 0.19, Y -0.149 ± 0.28, N -0.402 ± 0.44, S 0.072 ± 0.15, H -0.298 ± 0.34, E -0.049 ± 0.19, K -0.26 ± 0.16, P -0.245 ± 0.2
W46: T -0.972 ± 0.48, M -0.864 ± 0.3, G -0.559 ± 0.16, E -0.396 ± 0.27, P -0.656 ± 0.36, V -0.803 ± 0.18, L -0.691 ± 0.17, S -0.403 ± 0.17, C -0.366 ± 0.21, R -0.344 ± 0.11, A -0.669 ± 0.19

Variants of: B2
Test: as above
Conditions: Homo sapiens

Abundance fitness: each site, then its substitutions
D35: N 0.236 ± 0.22
F41: Y 0.185 ± 0.17
D21: Q -0.122 ± 0.086
I38: W -0.24 ± 0.099, S 0.224 ± 0.071
W22: S -0.91 ± 0.17
L9: K 0.308 ± 0.091
E5: N -0.362 ± 0.097
K19: W -0.526 ± 0.11
E13: L -0.598 ± 0.086, A -0.028 ± 0.081
K24: M 0.259 ± 0.1
Q34: S 0.056 ± 0.067
L39: I -0.21 ± 0.31
L11: Q -0.556 ± 0.12
E16: M -0.439 ± 0.1
M17: S -0.167 ± 0.086, T -0.054 ± 0.12
C37: R -0.697 ± 0.079
S26: G 0.084 ± 0.069, C -0.07 ± 0.088, P -0.444 ± 0.12
Q6: L -0.116 ± 0.068
A14: D -0.806 ± 0.45
L15: E 0.241 ± 0.065
T8: C -0.006 ± 0.12
V29: S -1.3 ± 0.37
